Our source for the response values is PMC5037378.

For the assay, the target named is Aggrecan (UniProt P13608). As to the kind of experiment: solid phase binding assay (ELISA-type, HRP anti-human IgG Fc, OPD colorimetric). Particulars: PTPσ-Fc 80 nM, wells coated with aggrecan 10 μg/ml, read off a plot.
Chain of UniProt P13608 (P13608 17-2364): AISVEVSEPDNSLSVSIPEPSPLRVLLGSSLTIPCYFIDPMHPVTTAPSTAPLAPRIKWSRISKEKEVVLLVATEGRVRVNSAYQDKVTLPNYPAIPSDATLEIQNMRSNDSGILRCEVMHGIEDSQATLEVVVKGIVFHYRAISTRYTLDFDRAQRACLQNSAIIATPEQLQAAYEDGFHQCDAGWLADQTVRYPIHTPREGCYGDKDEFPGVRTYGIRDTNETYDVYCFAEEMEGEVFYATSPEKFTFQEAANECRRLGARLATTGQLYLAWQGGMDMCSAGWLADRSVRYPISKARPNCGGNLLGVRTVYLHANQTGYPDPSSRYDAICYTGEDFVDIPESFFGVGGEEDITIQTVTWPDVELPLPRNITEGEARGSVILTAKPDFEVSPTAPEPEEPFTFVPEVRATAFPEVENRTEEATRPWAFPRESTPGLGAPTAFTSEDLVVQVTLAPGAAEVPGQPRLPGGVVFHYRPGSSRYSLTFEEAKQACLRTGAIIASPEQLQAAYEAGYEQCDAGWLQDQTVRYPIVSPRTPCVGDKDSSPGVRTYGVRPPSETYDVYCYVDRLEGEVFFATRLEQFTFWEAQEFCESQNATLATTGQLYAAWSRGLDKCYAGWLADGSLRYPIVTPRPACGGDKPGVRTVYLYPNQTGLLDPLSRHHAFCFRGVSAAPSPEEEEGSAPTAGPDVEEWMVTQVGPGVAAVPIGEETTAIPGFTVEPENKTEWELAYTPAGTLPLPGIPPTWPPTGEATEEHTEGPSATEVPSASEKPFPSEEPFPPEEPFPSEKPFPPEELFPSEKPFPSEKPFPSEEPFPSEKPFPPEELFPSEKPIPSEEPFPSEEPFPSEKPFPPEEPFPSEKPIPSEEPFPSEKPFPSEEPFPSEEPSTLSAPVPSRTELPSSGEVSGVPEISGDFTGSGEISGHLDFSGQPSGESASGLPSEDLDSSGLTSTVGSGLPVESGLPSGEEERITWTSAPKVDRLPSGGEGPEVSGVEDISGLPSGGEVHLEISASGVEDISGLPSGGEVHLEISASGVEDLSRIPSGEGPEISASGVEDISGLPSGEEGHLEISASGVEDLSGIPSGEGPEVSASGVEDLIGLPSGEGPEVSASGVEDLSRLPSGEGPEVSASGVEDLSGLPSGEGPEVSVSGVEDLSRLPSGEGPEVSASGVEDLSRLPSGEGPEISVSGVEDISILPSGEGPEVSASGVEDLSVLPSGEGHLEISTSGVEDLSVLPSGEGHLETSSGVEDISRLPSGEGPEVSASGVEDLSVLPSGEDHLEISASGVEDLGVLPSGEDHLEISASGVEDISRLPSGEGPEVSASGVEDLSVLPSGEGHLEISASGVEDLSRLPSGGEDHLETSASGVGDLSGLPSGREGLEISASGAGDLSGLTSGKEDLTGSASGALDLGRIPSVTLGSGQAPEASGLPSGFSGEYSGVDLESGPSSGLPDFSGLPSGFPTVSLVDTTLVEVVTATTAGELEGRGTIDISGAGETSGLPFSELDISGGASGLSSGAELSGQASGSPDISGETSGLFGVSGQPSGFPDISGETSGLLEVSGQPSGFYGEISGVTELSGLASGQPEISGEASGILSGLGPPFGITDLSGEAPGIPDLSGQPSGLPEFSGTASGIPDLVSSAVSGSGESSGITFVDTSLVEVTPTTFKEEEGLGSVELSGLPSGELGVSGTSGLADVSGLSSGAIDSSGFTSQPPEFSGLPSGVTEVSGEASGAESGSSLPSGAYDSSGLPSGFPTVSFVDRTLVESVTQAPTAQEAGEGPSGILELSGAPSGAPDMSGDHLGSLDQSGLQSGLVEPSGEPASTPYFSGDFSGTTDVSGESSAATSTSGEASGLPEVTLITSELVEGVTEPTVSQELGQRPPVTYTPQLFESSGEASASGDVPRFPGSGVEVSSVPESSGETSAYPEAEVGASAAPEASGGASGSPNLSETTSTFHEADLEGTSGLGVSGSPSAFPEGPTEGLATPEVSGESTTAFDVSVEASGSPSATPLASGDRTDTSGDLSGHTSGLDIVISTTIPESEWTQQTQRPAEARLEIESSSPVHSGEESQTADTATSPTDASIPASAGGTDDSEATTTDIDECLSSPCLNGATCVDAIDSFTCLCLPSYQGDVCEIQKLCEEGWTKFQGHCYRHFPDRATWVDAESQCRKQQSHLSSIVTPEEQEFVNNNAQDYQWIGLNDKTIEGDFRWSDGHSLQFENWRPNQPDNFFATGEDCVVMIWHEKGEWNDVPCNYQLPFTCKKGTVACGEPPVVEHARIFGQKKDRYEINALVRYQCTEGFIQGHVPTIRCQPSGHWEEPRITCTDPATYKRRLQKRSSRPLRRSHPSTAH

On to “PTPσ (protein tyrosine phosphatase sigma) N-terminal extracellular part with the three Ig domains, Fc-tagged, wild type (from UniProt B0V2N1) PTPσ mutant (lacks the CS binding site; substitutions not printed)”, for which the response (HB-GAM 0 nM, parent: est. 1.2) turned out to be 0.081 A450; the response (HB-GAM 10 nM, parent: est. 0.88) turned out to be 0.085 A450; the response (HB-GAM 20 nM, parent: est. 0.64) was determined as 0.085 A450; the response (HB-GAM 40 nM, parent: est. 0.43) was 0.084 A450; the response (HB-GAM 80 nM, parent: est. 0.31) was found to be 0.083 A450; the response (HB-GAM 160 nM, parent: est. 0.25) was 0.083 A450. In addition, the response (HB-GAM 320 nM, parent: est. 0.23) turned out to be 0.084 A450.
